B1: Chromodomain-helicase-DNA-binding protein 5, residues 411 to 463; numbered along this chain, Q8TDI0 (parent)
chain: EEDDHMEFCRVCKDGGELLCCDACPSSYHLHCLNPPLPEIPNGEWLCPRCTCP
B2: Gamma-crystallin S, residues 96 to 176; numbered along this chain, P22914 (parent)
chain: IQIFEKGDFSGQMYETTEDCPSIMEQFHMREIHSCKVLEGVWIFYELPNYRGRQYLLDKKEYRKPIDWGAASPAVQSFRRI

± gives the uncertainty stated by the source.

Variants of B1 are the subject of the first data set. Nature of the data set: abundance fitness (aPCA) (normalised: wild type 0, dead -1); higher = more abundant; growth selection in yeast, the domain comes from the species named. Particulars: Homo sapiens.
With C50V, the abundance fitness is -0.675 ± 0.057.

As to C50A, the abundance fitness was -0.628 ± 0.055.

With C50Q, the abundance fitness is -0.619 ± 0.049.

With C50W, the abundance fitness was -0.477 ± 0.066.

For C50N, the abundance fitness was -0.591 ± 0.11.

Take C50G: the abundance fitness was -0.613 ± 0.05.

Take C52G: the abundance fitness was determined as 0.029 ± 0.055.

Regarding C52S, the abundance fitness stood at 0.138 ± 0.061.

Regarding C52I, the abundance fitness is -0.239 ± 0.099.

For C52A, the abundance fitness turned out to be 0.067 ± 0.054.

For the variant C52Q, the abundance fitness is -0.121 ± 0.11.

On to C52Y, for which the abundance fitness is -0.295 ± 0.092.

As to C52D, the abundance fitness was 0.262 ± 0.085.

C52K: the abundance fitness is -0.198 ± 0.14.

Turning to C52F, the abundance fitness is -0.141 ± 0.098.

For C52V, the abundance fitness amounted to 0.062 ± 0.055.

As to C52H, the abundance fitness came to 0.189 ± 0.1.

For C52E, the abundance fitness was determined as 0.126 ± 0.08.

For C52L, the abundance fitness worked out at 0.018 ± 0.049.

For the variant C52N, the abundance fitness stood at 0.222 ± 0.11.

For the variant C52P, the abundance fitness came to 0.11 ± 0.053.

On to C52R, for which the abundance fitness was -0.026 ± 0.045.

In the case of C52M, the abundance fitness turned out to be 0.021 ± 0.053.

Another data set covers variants of B2. Described as above. Particulars: Homo sapiens.
Turning to IMIFEKGDFSGQMYETTEDCPSIMEQFHMREIHSCKVLEGVWIFYELPNYRGRQYLLDKKEYRKPIDWGAASPAVQSFRRI [Q2M], the abundance fitness is -0.077 ± 0.1.

In the case of IIIFEKGDFSGQMYETTEDCPSIMEQFHMREIHSCKVLEGVWIFYELPNYRGRQYLLDKKEYRKPIDWGAASPAVQSFRRI [Q2I], the abundance fitness amounted to 0.221 ± 0.41.

On to IFIFEKGDFSGQMYETTEDCPSIMEQFHMREIHSCKVLEGVWIFYELPNYRGRQYLLDKKEYRKPIDWGAASPAVQSFRRI [Q2F], for which the abundance fitness amounted to 0.17 ± 0.16.

As to IHIFEKGDFSGQMYETTEDCPSIMEQFHMREIHSCKVLEGVWIFYELPNYRGRQYLLDKKEYRKPIDWGAASPAVQSFRRI [Q2H], the abundance fitness amounted to 0.088 ± 0.086.

Regarding IDIFEKGDFSGQMYETTEDCPSIMEQFHMREIHSCKVLEGVWIFYELPNYRGRQYLLDKKEYRKPIDWGAASPAVQSFRRI [Q2D], the abundance fitness was -0.053 ± 0.084.

As to INIFEKGDFSGQMYETTEDCPSIMEQFHMREIHSCKVLEGVWIFYELPNYRGRQYLLDKKEYRKPIDWGAASPAVQSFRRI [Q2N], the abundance fitness came out at 0.124 ± 0.13.

On to ISIFEKGDFSGQMYETTEDCPSIMEQFHMREIHSCKVLEGVWIFYELPNYRGRQYLLDKKEYRKPIDWGAASPAVQSFRRI [Q2S], for which the abundance fitness was 0.039 ± 0.075.

For IWIFEKGDFSGQMYETTEDCPSIMEQFHMREIHSCKVLEGVWIFYELPNYRGRQYLLDKKEYRKPIDWGAASPAVQSFRRI [Q2W], the abundance fitness was determined as 0.003 ± 0.068.

As for IPIFEKGDFSGQMYETTEDCPSIMEQFHMREIHSCKVLEGVWIFYELPNYRGRQYLLDKKEYRKPIDWGAASPAVQSFRRI [Q2P], the abundance fitness was -0.876 ± 0.22.

Consider ITIFEKGDFSGQMYETTEDCPSIMEQFHMREIHSCKVLEGVWIFYELPNYRGRQYLLDKKEYRKPIDWGAASPAVQSFRRI [Q2T], for which the abundance fitness is -0.066 ± 0.087.

Take IAIFEKGDFSGQMYETTEDCPSIMEQFHMREIHSCKVLEGVWIFYELPNYRGRQYLLDKKEYRKPIDWGAASPAVQSFRRI [Q2A]: the abundance fitness is -0.075 ± 0.042.

For IGIFEKGDFSGQMYETTEDCPSIMEQFHMREIHSCKVLEGVWIFYELPNYRGRQYLLDKKEYRKPIDWGAASPAVQSFRRI [Q2G], the abundance fitness turned out to be 0.035 ± 0.046.

Turning to IVIFEKGDFSGQMYETTEDCPSIMEQFHMREIHSCKVLEGVWIFYELPNYRGRQYLLDKKEYRKPIDWGAASPAVQSFRRI [Q2V], the abundance fitness was -0.041 ± 0.056.

Turning to ICIFEKGDFSGQMYETTEDCPSIMEQFHMREIHSCKVLEGVWIFYELPNYRGRQYLLDKKEYRKPIDWGAASPAVQSFRRI [Q2C], the abundance fitness is 0.027 ± 0.13.

For IKIFEKGDFSGQMYETTEDCPSIMEQFHMREIHSCKVLEGVWIFYELPNYRGRQYLLDKKEYRKPIDWGAASPAVQSFRRI [Q2K], the abundance fitness came out at 0.022 ± 0.085.

For IYIFEKGDFSGQMYETTEDCPSIMEQFHMREIHSCKVLEGVWIFYELPNYRGRQYLLDKKEYRKPIDWGAASPAVQSFRRI [Q2Y], the abundance fitness is -0.099 ± 0.15.

Take IRIFEKGDFSGQMYETTEDCPSIMEQFHMREIHSCKVLEGVWIFYELPNYRGRQYLLDKKEYRKPIDWGAASPAVQSFRRI [Q2R]: the abundance fitness is 0.027 ± 0.04.

On to IQIAEKGDFSGQMYETTEDCPSIMEQFHMREIHSCKVLEGVWIFYELPNYRGRQYLLDKKEYRKPIDWGAASPAVQSFRRI [F4A], for which the abundance fitness is -0.275 ± 0.05.

As to IQHFEKGDFSGQMYETTEDCPSIMEQFHMREIHSCKVLEGVWIFYELPNYRGRQYLLDKKEYRKPIDWGAASPAVQSFRRI [I3H], the abundance fitness was -0.777 ± 0.26.

As to IQPFEKGDFSGQMYETTEDCPSIMEQFHMREIHSCKVLEGVWIFYELPNYRGRQYLLDKKEYRKPIDWGAASPAVQSFRRI [I3P], the abundance fitness was -1.2 ± 0.23.

Turning to IQFFEKGDFSGQMYETTEDCPSIMEQFHMREIHSCKVLEGVWIFYELPNYRGRQYLLDKKEYRKPIDWGAASPAVQSFRRI [I3F], the abundance fitness amounted to 0.031 ± 0.11.

As to IQSFEKGDFSGQMYETTEDCPSIMEQFHMREIHSCKVLEGVWIFYELPNYRGRQYLLDKKEYRKPIDWGAASPAVQSFRRI [I3S], the abundance fitness was -0.931 ± 0.13.

In the case of IQMFEKGDFSGQMYETTEDCPSIMEQFHMREIHSCKVLEGVWIFYELPNYRGRQYLLDKKEYRKPIDWGAASPAVQSFRRI [I3M], the abundance fitness was -0.018 ± 0.072.

For the variant IQWFEKGDFSGQMYETTEDCPSIMEQFHMREIHSCKVLEGVWIFYELPNYRGRQYLLDKKEYRKPIDWGAASPAVQSFRRI [I3W], the abundance fitness was -0.047 ± 0.056.

For IQKFEKGDFSGQMYETTEDCPSIMEQFHMREIHSCKVLEGVWIFYELPNYRGRQYLLDKKEYRKPIDWGAASPAVQSFRRI [I3K], the abundance fitness is -1.12 ± 0.24.

Consider IQGFEKGDFSGQMYETTEDCPSIMEQFHMREIHSCKVLEGVWIFYELPNYRGRQYLLDKKEYRKPIDWGAASPAVQSFRRI [I3G], for which the abundance fitness is -0.716 ± 0.067.

Take IQRFEKGDFSGQMYETTEDCPSIMEQFHMREIHSCKVLEGVWIFYELPNYRGRQYLLDKKEYRKPIDWGAASPAVQSFRRI [I3R]: the abundance fitness is -0.703 ± 0.081.

With IQDFEKGDFSGQMYETTEDCPSIMEQFHMREIHSCKVLEGVWIFYELPNYRGRQYLLDKKEYRKPIDWGAASPAVQSFRRI [I3D], the abundance fitness is -0.705 ± 0.38.

In the case of IQCFEKGDFSGQMYETTEDCPSIMEQFHMREIHSCKVLEGVWIFYELPNYRGRQYLLDKKEYRKPIDWGAASPAVQSFRRI [I3C], the abundance fitness was -0.029 ± 0.092.

Turning to IQNFEKGDFSGQMYETTEDCPSIMEQFHMREIHSCKVLEGVWIFYELPNYRGRQYLLDKKEYRKPIDWGAASPAVQSFRRI [I3N], the abundance fitness was -0.627 ± 0.14.

Take IQTFEKGDFSGQMYETTEDCPSIMEQFHMREIHSCKVLEGVWIFYELPNYRGRQYLLDKKEYRKPIDWGAASPAVQSFRRI [I3T]: the abundance fitness is -0.185 ± 0.053.

In the case of IQEFEKGDFSGQMYETTEDCPSIMEQFHMREIHSCKVLEGVWIFYELPNYRGRQYLLDKKEYRKPIDWGAASPAVQSFRRI [I3E], the abundance fitness is -1 ± 0.22.

On to IQYFEKGDFSGQMYETTEDCPSIMEQFHMREIHSCKVLEGVWIFYELPNYRGRQYLLDKKEYRKPIDWGAASPAVQSFRRI [I3Y], for which the abundance fitness is -0.286 ± 0.1.

For the variant IQAFEKGDFSGQMYETTEDCPSIMEQFHMREIHSCKVLEGVWIFYELPNYRGRQYLLDKKEYRKPIDWGAASPAVQSFRRI [I3A], the abundance fitness was -0.141 ± 0.061.

For IQLFEKGDFSGQMYETTEDCPSIMEQFHMREIHSCKVLEGVWIFYELPNYRGRQYLLDKKEYRKPIDWGAASPAVQSFRRI [I3L], the abundance fitness was -0.02 ± 0.053.

As to IQQFEKGDFSGQMYETTEDCPSIMEQFHMREIHSCKVLEGVWIFYELPNYRGRQYLLDKKEYRKPIDWGAASPAVQSFRRI [I3Q], the abundance fitness was -1.08 ± 0.23.

Consider WQIFEKGDFSGQMYETTEDCPSIMEQFHMREIHSCKVLEGVWIFYELPNYRGRQYLLDKKEYRKPIDWGAASPAVQSFRRI [I1W], for which the abundance fitness was -1.16 ± 0.44.

As to TQIFEKGDFSGQMYETTEDCPSIMEQFHMREIHSCKVLEGVWIFYELPNYRGRQYLLDKKEYRKPIDWGAASPAVQSFRRI [I1T], the abundance fitness is -0.191 ± 0.13.

As to RQIFEKGDFSGQMYETTEDCPSIMEQFHMREIHSCKVLEGVWIFYELPNYRGRQYLLDKKEYRKPIDWGAASPAVQSFRRI [I1R], the abundance fitness was -1.07 ± 0.23.

For the variant VQIFEKGDFSGQMYETTEDCPSIMEQFHMREIHSCKVLEGVWIFYELPNYRGRQYLLDKKEYRKPIDWGAASPAVQSFRRI [I1V], the abundance fitness came out at 0.05 ± 0.073.

CQIFEKGDFSGQMYETTEDCPSIMEQFHMREIHSCKVLEGVWIFYELPNYRGRQYLLDKKEYRKPIDWGAASPAVQSFRRI [I1C]: the abundance fitness is 0.104 ± 0.11.

FQIFEKGDFSGQMYETTEDCPSIMEQFHMREIHSCKVLEGVWIFYELPNYRGRQYLLDKKEYRKPIDWGAASPAVQSFRRI [I1F]: the abundance fitness is 0.011 ± 0.091.

As for KQIFEKGDFSGQMYETTEDCPSIMEQFHMREIHSCKVLEGVWIFYELPNYRGRQYLLDKKEYRKPIDWGAASPAVQSFRRI [I1K], the abundance fitness was -0.732 ± 0.35.

As to AQIFEKGDFSGQMYETTEDCPSIMEQFHMREIHSCKVLEGVWIFYELPNYRGRQYLLDKKEYRKPIDWGAASPAVQSFRRI [I1A], the abundance fitness is -0.239 ± 0.051.

Take HQIFEKGDFSGQMYETTEDCPSIMEQFHMREIHSCKVLEGVWIFYELPNYRGRQYLLDKKEYRKPIDWGAASPAVQSFRRI [I1H]: the abundance fitness amounted to 0.005 ± 0.46.

Turning to SQIFEKGDFSGQMYETTEDCPSIMEQFHMREIHSCKVLEGVWIFYELPNYRGRQYLLDKKEYRKPIDWGAASPAVQSFRRI [I1S], the abundance fitness was -0.973 ± 0.078.

On to LQIFEKGDFSGQMYETTEDCPSIMEQFHMREIHSCKVLEGVWIFYELPNYRGRQYLLDKKEYRKPIDWGAASPAVQSFRRI [I1L], for which the abundance fitness was -0.154 ± 0.084.

With NQIFEKGDFSGQMYETTEDCPSIMEQFHMREIHSCKVLEGVWIFYELPNYRGRQYLLDKKEYRKPIDWGAASPAVQSFRRI [I1N], the abundance fitness was -0.968 ± 0.37.

Take GQIFEKGDFSGQMYETTEDCPSIMEQFHMREIHSCKVLEGVWIFYELPNYRGRQYLLDKKEYRKPIDWGAASPAVQSFRRI [I1G]: the abundance fitness is -1.18 ± 0.16.

(Values after the Human Domainome abundance scans (Beltran et al. 2025).)
